Data as given in the Immune Epitope Database (IEDB).

Legend:
[1] = biological target: HLA-A*68:02; assay: IEDB peptide-MHC binding, purified MHC/competitive/radioactivity; filed as Kd, often an IC50 or EC50 that approximates it; ≥ and ≤ were set here for values at or beyond the usual limits of such assays
[2] = biological target: HLA-B*51:01; assay: as above; settings: source organism: Dengue virus 1 Brazil/97-11/1997
[3] = biological target: HLA-B*45:01; assay: as above
[4] = biological target: HLA-B*40:01; assay: as above
[5] = biological target: HLA-B*18:01; assay: as above
[6] = biological target: HLA-B*44:02; assay: as above
[7] = biological target: HLA-B*40:02; assay: as above
[8] = biological target: HLA-B*44:03; assay: as above
[9] = biological target: HLA-A*02:06; assay: as above
[10] = biological target: HLA-A*24:03; assay: IEDB peptide-MHC binding, purified MHC/direct/fluorescence; filed as Kd, often an IC50 or EC50 that approximates it; ≥ and ≤ were set here for values at or beyond the usual limits of such assays
[11] = biological target: HLA-B*58:01; assay: as above
[12] = biological target: HLA-B*57:01; assay: as above
[13] = biological target: HLA-B*35:01; assay: IEDB peptide-MHC binding, purified MHC/competitive/radioactivity; filed as Kd, often an IC50 or EC50 that approximates it; ≥ and ≤ were set here for values at or beyond the usual limits of such assays
[14] = biological target: HLA-A*30:02; assay: as above; settings: source organism: Dengue virus 1 Brazil/97-11/1997
[15] = biological target: HLA-B*39:01; assay: IEDB peptide-MHC binding, purified MHC/competitive/fluorescence; filed as Kd, often an IC50 or EC50 that approximates it; ≥ and ≤ were set here for values at or beyond the usual limits of such assays; settings: source organism: Bacillus anthracis str. A0488
[16] = biological target: HLA-B*08:01; assay: IEDB peptide-MHC binding, purified MHC/direct/fluorescence; filed as Kd, often an IC50 or EC50 that approximates it; ≥ and ≤ were set here for values at or beyond the usual limits of such assays; settings: source organism: Campylobacter jejuni subsp. jejuni 81-176
[17] = source organism: SARS coronavirus Tor2
[18] = source organism: Dengue virus 1 Nauru/West Pac/1974
[19] = source organism: Mammarenavirus whitewaterense
[20] = source organism: Mammarenavirus choriomeningitidis
[21] = source organism: Entamoeba histolytica HM-1:IMSS
[22] = source organism: Dengue virus 1 Brazil/97-11/1997

Sequence: MSFRDLGRV
- Kd ([1]; source organism: Dengue virus 2 Jamaica/1409/1983): 19.6 nM

Sequence: MVQADSGCVI
- Kd [2]: ≥ 63900 nM

Sequence: NELTLIDFYL
- Kd [3, 17]: 1080 nM
- Kd [4, 17]: 231 nM
- Kd [5, 17]: 604 nM
- Kd [6, 17]: 157 nM
- Kd [7, 17]: 126 nM
- Kd [8, 17]: 51 nM

Sequence: NIVSSVNMV
- Kd ([1]; source organism: Dengue virus 3 Sri Lanka/1266/2000): 212 nM

Sequence: QELGHEDLMA
- Kd [3, 17]: 671 nM
- Kd [4, 17]: ≥ 26900 nM
- Kd [5, 17]: ≥ 70500 nM
- Kd [6, 17]: 4150 nM
- Kd [7, 17]: 2580 nM
- Kd [8, 17]: 2350 nM

Sequence: QELGKYEQYI
- Kd [3, 17]: ≥ 20600 nM
- Kd [4, 17]: 13000 nM
- Kd [5, 17]: ≥ 70500 nM
- Kd [6, 17]: 207 nM
- Kd [7, 17]: 507 nM
- Kd [8, 17]: 187 nM

Sequence: QIFGTAYGV
- Kd [1, 18]: 2.31 nM
- Kd [9, 18]: 3.61 nM

Sequence: REIGFIVPGL
- Kd [3, 17]: 103 nM
- Kd [4, 17]: 0.132 nM
- Kd [5, 17]: 8670 nM
- Kd [6, 17]: 14.3 nM
- Kd [7, 17]: 0.408 nM
- Kd [8, 17]: 4.29 nM

Sequence: REPETTVVL
- Kd [3, 19]: ≥ 74800 nM
- Kd [4, 19]: 112 nM
- Kd [5, 19]: 7900 nM
- Kd [6, 19]: 18600 nM
- Kd [7, 19]: 92.7 nM
- Kd [8, 19]: ≥ 44300 nM

Sequence: RTLNELWFL
- Kd ([10]; source organism: Escherichia coli O157:H7): 3.5 nM

Sequence: SAFFGMSRIG
- Kd [3, 17]: ≥ 26400 nM
- Kd [4, 17]: ≥ 44900 nM
- Kd [5, 17]: ≥ 70500 nM
- Kd [6, 17]: 18400 nM
- Kd [7, 17]: ≥ 70800 nM
- Kd [8, 17]: 8770 nM

Sequence: SDAALHNMI
- Kd [3, 20]: 2120 nM
- Kd [4, 20]: ≥ 35800 nM
- Kd [5, 20]: ≥ 77500 nM
- Kd [6, 20]: 7070 nM
- Kd [7, 20]: 1930 nM
- Kd [8, 20]: ≥ 31700 nM

Sequence: SDSVCACGL
- Kd [3, 19]: 10600 nM
- Kd [4, 19]: ≥ 44000 nM
- Kd [5, 19]: ≥ 77500 nM
- Kd [6, 19]: 3090 nM
- Kd [7, 19]: 3880 nM
- Kd [8, 19]: 2830 nM

Sequence: SEEVVENPTI
- Kd [3, 17]: 277 nM
- Kd [4, 17]: 1050 nM
- Kd [5, 17]: ≥ 48700 nM
- Kd [6, 17]: 471 nM
- Kd [7, 17]: 402 nM
- Kd [8, 17]: 1040 nM

Sequence: SSTDQQEWM
- Kd [11, 21]: 3870 nM
- Kd [12, 21]: ≥ 20000 nM

Sequence: TPPGSVEAF
- Kd [13, 22]: 699 nM

Sequence: TPPGTADAF
- Kd ([13]; source organism: Dengue virus 3 Martinique/1243/1999): 278 nM

Sequence: TSVGVNMCTL
- Kd ([1]; source organism: Dengue virus 1 Singapore/S275/1990): 37.5 nM

Sequence: TTSGTYVSA
- Kd [1, 22]: 24 nM

Sequence: TYGVCSKAF
- Kd ([10]; source organism: West Nile virus): 24.5 nM

Sequence: VDYGVRFFFY
- Kd [3, 17]: 451 nM
- Kd [4, 17]: 16800 nM
- Kd [5, 17]: ≥ 38100 nM
- Kd [6, 17]: 823 nM
- Kd [7, 17]: ≥ 30400 nM
- Kd [8, 17]: 789 nM

Sequence: VSLTECPTF
- Kd ([11]; source organism: Amur virus): 34.8 nM
- Kd ([12]; source organism: Amur virus): 474 nM

Sequence: WPISKMDLGV
- Kd [2]: 3160 nM

Sequence: WTLYAVATTV
- Kd [1, 22]: 1.57 nM
- Kd [9, 22]: 90.1 nM

Sequence: YGGPISQHNY
- Kd [13, 22]: 406 nM
- Kd [14]: 192 nM

Sequence: YHHTAINVL
- Kd [15]: 6.3 nM

Sequence: YLKPKIWRF
- Kd [16]: 8 nM
